B1: KAP1 RBCC (residues 50-413), wild type [human] / itself (parent)
chain: SPAGGGAEALELLEHCGVCRERLRPEREPRLLPCLHSACSACLGPAAPAAANSSGDGGAAGDGTVVDCPVCKQQCFSKDIVENYFMRDSGSKAATDAQDANQCCTSCEDNAPATSYCVECSEPLCETCVEAHQRVKYTKDHTVRSTGPAKSRDGERTVYCNVHKHEPLVLFCESCDTLTCRDCQLNAHKDHQYQFLEDAVRNQRKLLASLVKRLGDKHATLQKSTKEVRSSIRQVSDVQKRVQVDVKMAILQIMKELNKRGRVLVNDAQKVTEGQQERLERQHWTMTKIQKHQEHILRFASWALESDNNTALLLSKKLIYFQLHRALKMIVDPVEPHGEMKFQWDLNAWTKSAEAFGKIVAERP

Experimental findings from PMC6660772 are described below.

Variants of B1 are the subject of this assay. Description: SEC-MALS. The following applies: with itself; mutant 179 µM; WT 159 µM; read off a plot. For orientation: In gel filtration, larger molecules generally elute earlier.
Consider chain 1 A111D T114A E126R, for which the screen value worked out at 95 kDa.
